Measured values as given in publication PMC3089910 (Analytical biochemistry, 2010).

Columns and labels:
[1] = biological target: the molecule itself; experiment: AUC
[2] = biological target: human lactoferrin (hLF), iron-free, in the presence of Zn2+ (human); experiment: AUC

B1: rTp34, Tp34 from Treponema pallidum, in the presence of Zn2+ (natural protein)
chain: CGGGGEHQHGEEMMAAVPAPDAEGAAGFDEFPIGEDRDVGPLHVGGVYFQPVEMHPAPGAQPSKEEADCHIEADIHANEAGKDLGYGVGDFVPYLRVVAFLQKHGSEKVQKVMFAPMNAGDGPHYGANVKFEEGLGTYKVRFEIAAPSHDEYSLHIDEQTGVSGRFWSEPLVAEWDDFEWKGPQW
stoichiometry N [1]: 2
stoichiometry N [2]: 2
